Measured values from paper PMC9254107, “The Toxoplasma glucan phosphatase TgLaforin utilizes a distinct functional mechanism that can be exploited by therapeutic inhibitors” (The Journal of Biological Chemistry, 2022).

Target: the molecule itself
Experiment: SEC-MALS; Superdex 200 10/300; 500 ul of 2 mg/ml protein loaded, 0.5 ml/min; purification buffer of full-length TgLaforin (50 mM Hepes, 100 mM NaCl, 15 mM imidazole, 2 mM DTT, pH 8.0)

B1: TgLaforin (Toxoplasma gondii laforin, glucan phosphatase), full length (enzyme, UniProt S8F2K7 1-523, looked up)
chain: MRVRFSVTAFVPPNAQLGVVGSAPFLGEWKLEHCVPLMPYSAPHPQGLEPSLWFRDIDLDPASCPNDTNDVHSTAAVSASCSADRRRCDLSRQSPHCFPSARSASPYMVEVSRGDCPFAVELMSTSQHVLSEFSKHNSPVYSAGEQRFRRSLPSSASFSSCTSSGSAVAATKCVWDAAAYRVATRAPEVQAVLESHPLRHCAFEYKFVLWYPPNGEIAVPYVPTTAGEEVPITYAGDSEVLNEESEGGARRRSWRKWLFPPSPSRCPAPPGPSESIVWEGFGPDSNRKFCFDPFDVVVDVNELGDLECLYICRIAHFRDPRAGGVGEYDLTTRFYNSVKSECRMHYSTIFPRFFVGSCPRQLKHIRHLKEELKVTCVVNLQTEQDLCNNYPDPIASSRSAEAVSQLYDGSGLRYVWLPTADMCDSARKIAVANAAFLLLGLFQSGHSVYMHCNAGVGRSVAAACAFLCFAVGLDLRKVNFLICARRPVAYWDEKAMKYGIGDYQAKFGHCRVVGEEAEERQHA
notes: TgLaforin, Toxoplasma gondii glucan phosphatase, ToxoDB TGME49_205290, 523 amino acids; N-terminal split CBM20 followed by a DSP domain; predicted recombinant monomer 61.5 kDa; also called T. gondii laforin; full-length TgLaforin; source: Sf9 insect cells (baculovirus), purified (Ni-agarose, SEC) to >95% homogeneity
- stoichiometry N: 2
